In patent US20250361274A1, “PEPTIDE AND PEPTIDE-CONTAINING AGENT” (PEPTIDREAM INC., priority 2022, published 2025):
Numbered stars: 1 amine (or outer) side, 2 acyl side, 3 side chain; on linkers, the order of the positions; unused ones are H or OH. Bridge positions count the residues as written; N and C are the ends. Square brackets hold non-standard residues; d marks the D form. KCOpipzaa = N6-(4-(carboxymethyl)piperazine-1-carbonyl)-L-lysine, O=C(NCCCC[C@H](N[*:1])C(=O)[*:2])N1CCN(CC(=O)[*:3])CC1; 3Pal(6-Ph) = N[C@@H](Cc1ccc(-c2ccccc2)nc1)C(=O)O; Phe(4-COOH) = N[C@@H](Cc1ccc(C(=O)O)cc1)C(=O)O; Bip = N[C@@H](Cc1ccc(-c2ccccc2)cc1)C(=O)O; 3Pal(6-NH2) = Nc1ccc(C[C@H](N)C(=O)O)cn1; Aad = N[C@@H](CCCC(=O)O)C(=O)O; βAla = NCCC(=O)O

Experiments:
BMP4 = molecular target: T1, BMP4 (Homo sapiens, UniProt P12644); experiment: BMP4 signal transduction inhibitory activity: SMAD1 phosphorylation by BMP4 stimulus, AlphaLISA SureFire, A549 cells; format: cell-based; details: inhibition of SMAD1 phosphorylation by BMP4 stimulus, A549 cells, ND
T1 sequence (P12644 293-408): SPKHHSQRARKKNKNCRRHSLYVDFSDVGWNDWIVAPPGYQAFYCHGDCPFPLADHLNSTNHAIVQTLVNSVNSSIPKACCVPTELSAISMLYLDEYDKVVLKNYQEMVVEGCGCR

BMP7 = molecular target: T2, BMP7 (Homo sapiens, UniProt P18075); experiment: BMP7 signal transduction inhibitory activity: SMAD1 phosphorylation by BMP7 stimulus, A549 cells; format: cell-based; details: inhibition of SMAD1 phosphorylation by BMP7 stimulus, A549 cells, ND
T2 sequence (P18075 293-431): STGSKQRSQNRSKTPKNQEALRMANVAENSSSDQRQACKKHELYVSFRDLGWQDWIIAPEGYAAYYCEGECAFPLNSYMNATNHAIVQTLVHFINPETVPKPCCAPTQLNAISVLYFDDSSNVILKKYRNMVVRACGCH
Procedure, shortened: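 Cell line A549; stimulus BMP7 10 nM; endpoint pSMAD1. Peptide doses: three concentrations (1–1,000 nM range) or 8 × 1/3 dilutions from 100/1,000 nM.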

[1] = peptides of Synthesis 2, classes A-C
[2] = peptides of Synthesis 2, classes A-D
[3] = peptides of Synthesis 1, classes D-F
[4] = peptides of Synthesis 1, classes E, F

| Substance | aLISA BMP4 (BMP4; [1]) | aLISA BMP7 (BMP7; [2]) | aLISA BMP4 (BMP4; [3]) | aLISA BMP7 (BMP7; [4]) |
| --- | --- | --- | --- | --- |
| 114 (EKVYVKRFPYPFYFFSCG; not fully specified; MOD_RES 2 K represents N6-(4-(Carboxymethyl) piperazine-1-carbonyl)-L-lysine(KCOpipzaa); MOD_RES 6 K represents N6-(4-(Carboxymethyl) piperazine-1-carbonyl)-L-lysine(KCOpipzaa); MOD_RES 8 F represents (S)-3-(1,1'-Biphenyl-4-yl)-2-aminopropanoic acid(Bph); MOD_RES 12 F represents (S)-3-(1,1'-Biphenyl-4-yl)-2-aminopropanoic acid(Bph); MOD_RES 14 F represents (S)-4-(2-amino-2-carboxyethyl)benzoic aci) [compound 114] | A (showed an inhibitory activity of 50% or more in a zone to which the peptide was added to in an amount of 0.2 nM) | C (showed less than 50% of inhibitory activity in 10 nM-addition zone and showed 50% or more of inhibitory activity in 100 nM-addition zone) | – | – |
| 115 (EKVYVKRFPYPFYFFSCG; not fully specified; MOD_RES 2 K represents N6-(4-(Carboxymethyl) piperazine-1-carbonyl)-L-lysine(KCOpipzaa); MOD_RES 6 K represents N6-(4-(Carboxymethyl) piperazine-1-carbonyl)-L-lysine(KCOpipzaa); MOD_RES 8 F represents (S)-3-(1,1'-Biphenyl-4-yl)-2-aminopropanoic acid(Bph); MOD_RES 12 F represents (S)-3-(1,1'-Biphenyl-4-yl)-2-aminopropanoic acid(Bph); MOD_RES 14 F represents (S)-4-(2-amino-2-carboxyethyl)benzoic aci) [compound 115] | A (showed an inhibitory activity of 50% or more in a zone to which the peptide was added to in an amount of 0.2 nM) | C (showed less than 50% of inhibitory activity in 10 nM-addition zone and showed 50% or more of inhibitory activity in 100 nM-addition zone) | – | – |
| 116 (EKVYVKRFPYPFYFFSCA; not fully specified; MOD_RES 2 K represents N6-(4-(Carboxymethyl) piperazine-1-carbonyl)-L-lysine(KCOpipzaa); MOD_RES 6 K represents N6-(4-(Carboxymethyl) piperazine-1-carbonyl)-L-lysine(KCOpipzaa); MOD_RES 8 F represents (S)-3-(1,1'-Biphenyl-4-yl)-2-aminopropanoic acid(Bph); MOD_RES 12 F represents (S)-3-(1,1'-Biphenyl-4-yl)-2-aminopropanoic acid(Bph); MOD_RES 14 F represents (S)-4-(2-amino-2-carboxyethyl)benzoic aci) [compound 116] | A (showed an inhibitory activity of 50% or more in a zone to which the peptide was added to in an amount of 0.2 nM) | C (showed less than 50% of inhibitory activity in 10 nM-addition zone and showed 50% or more of inhibitory activity in 100 nM-addition zone) | – | – |
| 117 (EKVYVKRFPYPFYFFSCAE; not fully specified; MOD_RES 2 K represents N6-(4-(Carboxymethyl) piperazine-1-carbonyl)-L-lysine(KCOpipzaa); MOD_RES 6 K represents N6-(4-(Carboxymethyl) piperazine-1-carbonyl)-L-lysine(KCOpipzaa); MOD_RES 8 F represents (S)-3-(1,1'-Biphenyl-4-yl)-2-aminopropanoic acid(Bph); MOD_RES 12 F represents (S)-3-(1,1'-Biphenyl-4-yl)-2-aminopropanoic acid(Bph); MOD_RES 14 F represents (S)-4-(2-amino-2-carboxyethyl)benzoic aci) [compound 117] | C (showed an inhibitory activity of less than 50% in 0.2 nM-addition zone and showed an inhibitory activity of 50% or more in 2 nM-addition zone were defined as B or C) | C (showed less than 50% of inhibitory activity in 10 nM-addition zone and showed 50% or more of inhibitory activity in 100 nM-addition zone) | – | – |
| 118 (EKVYVKRFPYPFYFFSCAE; not fully specified; MOD_RES 2 K represents N6-(4-(Carboxymethyl) piperazine-1-carbonyl)-L-lysine(KCOpipzaa); MOD_RES 6 K represents N6-(4-(Carboxymethyl) piperazine-1-carbonyl)-L-lysine(KCOpipzaa); MOD_RES 8 F represents (S)-3-(1,1'-Biphenyl-4-yl)-2-aminopropanoic acid(Bph); MOD_RES 12 F represents (S)-3-(1,1'-Biphenyl-4-yl)-2-aminopropanoic acid(Bph); MOD_RES 14 F represents (S)-4-(2-amino-2-carboxyethyl)benzoic aci) [compound 118] | A (showed an inhibitory activity of 50% or more in a zone to which the peptide was added to in an amount of 0.2 nM) | C (showed less than 50% of inhibitory activity in 10 nM-addition zone and showed 50% or more of inhibitory activity in 100 nM-addition zone) | – | – |
| 120 ({CH2CO}-E[KCOpipzaa]VYV[KCOpipzaa]R[3Pal(6-Ph)]SYP[Bip]Y[Phe(4-COOH)][Phe(4-COOH)]SCG-NH2; thioether N-17; not fully specified) [compound 120] | A (showed an inhibitory activity of 50% or more in a zone to which the peptide was added to in an amount of 0.2 nM) | ND (the inhibitory activity was less than 30% at the maximum concentration evaluated) | – | – |
| 121 ({CH2CO}-ERV[Phe(4-COOH)]VDR[Bip]PYP[Bip]Y[Phe(4-COOH)][Phe(4-COOH)]SC[βAla][dE]-OH; thioether N-17; not fully specified) [compound 121] | A (showed an inhibitory activity of 50% or more in a zone to which the peptide was added to in an amount of 0.2 nM) | B (showed less than 50% of inhibitory activity in 1 nM-addition zone and showed 50% or more of inhibitory activity in 10 nM-addition zone) | – | – |
| 122 ({CH2CO}-ERV[Phe(4-COOH)]V[KCOpipzaa]R[Bip]PYP[Bip]Y[Phe(4-COOH)][Phe(4-COOH)]SC[βAla][dE]-OH; thioether N-17; not fully specified) [compound 122] | A (showed an inhibitory activity of 50% or more in a zone to which the peptide was added to in an amount of 0.2 nM) | C (showed less than 50% of inhibitory activity in 10 nM-addition zone and showed 50% or more of inhibitory activity in 100 nM-addition zone) | – | – |
| 123 ({CH2CO}-ERV[Phe(4-COOH)]V[KCOpipzaa]R[Bip]PYV[Bip]Y[Phe(4-COOH)][Phe(4-COOH)]SC[βAla][dE]-OH; thioether N-17; not fully specified) [compound 123] | A (showed an inhibitory activity of 50% or more in a zone to which the peptide was added to in an amount of 0.2 nM) | C (showed less than 50% of inhibitory activity in 10 nM-addition zone and showed 50% or more of inhibitory activity in 100 nM-addition zone) | – | – |
| 124 ({CH2CO}-ERV[Phe(4-COOH)]V[KCOpipzaa]R[Bip]SYV[Bip]Y[Phe(4-COOH)][Phe(4-COOH)]SC[βAla][dE]-OH; thioether N-17; not fully specified) [compound 124] | A (showed an inhibitory activity of 50% or more in a zone to which the peptide was added to in an amount of 0.2 nM) | C (showed less than 50% of inhibitory activity in 10 nM-addition zone and showed 50% or more of inhibitory activity in 100 nM-addition zone) | – | – |
| 125 ({CH2CO}-E[Aad]VYVDR[Bip]PYV[Bip]Y[Phe(4-COOH)][Phe(4-COOH)]SCG-NH2; thioether N-17; not fully specified) [compound 125] | – | – | E (showed less than 50% of inhibitory activity in 0.2 nM-addition zone and showed 50% or more of inhibitory activity in 2 nM-addition zone) | E (showed 50% or more of inhibitory activity in a zone to which the peptide was added in an amount of 10 nM) |
| 131 ({CH2CO}-ERVYDDR[Bip]PYV[Bip]Y[Phe(4-COOH)][Phe(4-COOH)]SCG-NH2; thioether N-17; not fully specified) [compound 131] | – | – | D (showed 50% or more of inhibitory activity in 0.2 nM-addition zone) | F (showed less than 50% of inhibitory activity in 10 nM-addition zone and showed 50% or more of inhibitory activity in 100 nM-addition zone) |
| 132 ({CH2CO}-ERVYVSR[Bip]PYV[Bip]Y[Phe(4-COOH)][Phe(4-COOH)]SCG-NH2; thioether N-17; not fully specified) [compound 132] | – | – | E (showed less than 50% of inhibitory activity in 0.2 nM-addition zone and showed 50% or more of inhibitory activity in 2 nM-addition zone) | ND (the inhibitory activity was less than 30% at the maximum concentration evaluated) |
| 133 ({CH2CO}-ERVYVD[3Pal(6-NH2)][Bip]PYV[Bip]Y[Phe(4-COOH)][Phe(4-COOH)]SCG-NH2; thioether N-17; not fully specified) [compound 133] | – | – | E (showed less than 50% of inhibitory activity in 0.2 nM-addition zone and showed 50% or more of inhibitory activity in 2 nM-addition zone) | E (showed 50% or more of inhibitory activity in a zone to which the peptide was added in an amount of 10 nM) |
